{
  "source": "paper PMC11216177",
  "binders": {"B1": {"name": "GFP-L(3)mbt (natural protein)", "chain": "MMALKMLYRGPSSRLENLIEKIQATKEITNNDMYSTHTSSSYSPSISDGTMTPNSHHLIGAPTAAGQEDHPTEGKINGGADGEDLPKPKRLPHFHHHHHHHYHHQQALKIANKLRKINKEAKMGATAGGGATGAASKFDKLTGEGIKSRGDGSYQCQFCEKTFPRLGYLKHHVQSHAEHLPFKCEYCSKLFKHKRSRDRHKKLHTNERNYKCPHCEAAFSRSDHLKIHMKTHDIQKPFQCSMCNRGYNTAAALTSHMQKHKKNAAILAAGGNPNALNYSPRSTGSASASVSSNGSLQKRRYALALASDSSPSRMDFPKRSRSNHVGGTTTTATPTPLLRCSYCPKVTEFSSLEQLNAHLQSVHEQPQTQAVKTPVQEGEGFQLSCEYCTMKFGNIAGLFQHMRSTHMDRLSSPNSYYEHFNRLATAGTFSPRLALDLPKIKPDLGSPERESRPAEDDLPTDLSNNKRRPLTPNPQAQTPLAPPSAPPGVFFCNQCNAGLPDFESFRNHLKSHIAEGMQLVCPHCGMSLPEQSEFERHVVGHFLITGSEFNCSSSCGKSFAKSEDLQQHLLSEHVLTLLKCSLCSELCESRMAMQLHLACAHSQETKLLRCSACLELFRSDAEFHVHVKTRHQLGGHPTLGATSSAPTNPLQCMFCRAVCSSELEMHFHLAAHARQFRCPSCPETFHVEFLLDRHMQSQHGGVKDKEANSPNMGSLYVNALLPPLAAAAAAAAATNNNSSIIDYNVAFKGLFGGASGGAGSGGGGAQSGGAPPSANKFYSPLQVDTNALKAQTSPHPALMYGLSQRYLMEMYAAKSTSPSGNEGVGNSQPPAPQATAPPPPPNASTATFSCGMCERQDLRSEAELHSHRKLAHNLKTGVSLRCAYCAGNFKSRAELEQHMKSCHNSTGKHKCLICDEVFPSPAILAEHKLQHSKVGQSGKCSHCGQPLEDVAAFRAHLSEHGSDGASLPLACICCRQTLHSEFELSLHAKFHTKSSSSGGSLQEPVCALCLEPLPDATEGPAKLCDKCCRKHNLNGKRGKHSEPATSLPAPPSAFVENRCNLCKMILPHAQKLQEHLVEHTFAGTEQRGFNCYICSAVFTAPGGLLNHMGEHGAHSRPYDCNLCPEKFFFRAELEHHQRGHELRPQARPPAAKVEVPSIRNTSPGQSPVRSPTIVKQELYETDTVESAGVEDEPENHPDEEEYIEVEQMPHETRPSGIGSQLERSTSSA"}, "B2": {"name": "Set8 (enzyme)", "chain": "MIMVRRRQRPAKEAASSSSGGASSGSGIPVDQALPLNVAGNLLEDQYFASPKRKDCRLMKVTQNGQLPEATMMAHNKDNKAGRTIGVPLATRSQTRTIENFFKANAAAKDSQKTIHTEEQLNLGNQELKLDDEELNGQIKLDDEVLKLADKQINENLPFADEVDAKAEQKLMDEELQQVVEELLFDGSSRASSNSPFYQHDMDVMQEIQQTPEIPHIKKVTEPLEGLGSLADFQTHRSALRDSHSSTHSSSTDNIFLQEPVLTLDIDRTPTKASSIKINRSFELAGAVFSSPPSVLNACLNGRFNQIVSLNGQKEALDLPHFDLDQHDSSSCDSGVACGLTANTESPAGQPRRRKPATPHRILCPSPIKTALKVTGGICKVGSADPLSPRKSPRKLPTTTAAVAACKSRRRLNQPKPQAPYQPQLQKPPSQQQQQQQDDIVVVLDDDDDEGDDEDDVRALIKAAEERENQNKAPATANSNKAGMKTMLKPAPVKSKTKSKGPTKGQPPLPLAATNGNREMTDFFPVRRSVRKTKTAVKEEWMRGLEQAVLEERCDGLQVRHFMGKGRGVVADRPFKRNEFVVEYVGDLISIGEAAEREKRYALDENAGCYMYYFKHKSQQYCIDATVDTGKLGRLINHSRAGNLMTKVVLIKQRPHLVLLAKDDIEPGEELTYDYGDRSKESLLHHPWLAF"}},
  "molecular_target": "H4K20R recombinant nucleosomes containing FLAG-tagged H2A and H4K20R",
  "assay": "pull-down",
  "data": [
    {"binder": "B1", "values": [
      {"measurement": "fold binding to H4K20R nucleosomes compared with WT nucleosomes", "result": 1.8, "unit": "fold"}
    ]},
    {"binder": "B2", "values": [
      {"measurement": "fold binding to H4K20R nucleosomes relative to WT nucleosomes", "result": 14.5, "unit": "fold"}
    ]}
  ]
}
